Measured values reported in patent publication US20250049896A1 (Regeneron, published 2025).

B1: 69331 Fab (Fab, V domains shown)
VH: QVQLVESGGGVVQPGRSLRLSCIASGFTFSVYGIHWVRQAPGKGLEWMAVISHDGNIKHYADSVKGRFTISRDNSKNTLYLQINSLRTEDTAVYYCAKDTWNSLDTFDIWGQGTMVTVSS
VL: DIQLTQSPSSLSASVGDRVTITCWASQGISSYLAWYQQKPGKAPKLLIYAASTLQSGVPSRFSGSGSGTEFTLTISSLQPEDFATYYCQQLNSYPLTFGGGTKVEIKR
notes: CHO supernatant
B2: 69326 scFv (VK-VH) (scFv)
scFv: EIVMTQSPATLSVSPGERATLSCRASQSVSSNFAWYQQKPGQAPRLLIYSASSRATGIPVRFSGSGSGTEFTLTISSLQSEDFAVYYCQQYNIWPRTFGQGTKVEIKGGGGSGGGGSGGGGSEVQLVESGGGLVQPGGSLRLSCAVSGFIFSSYEMNWVRQAPGKGLEWVSYISSSGSTIFYADSVKGRFTISRDNAKNSLYLQMNSLRAEDTAVYYCVSGVVLFDVWGQGTMVTVSS
notes: CHO supernatant; Vk-3xG4S-Vh
B3: 69331 scFv (VH-VK) (scFv)
chain: QVQLVESGGGVVQPGRSLRLSCIASGFTFSVYGIHWVRQAPGKGLEWMAVISHDGNIKHYADSVKGRFTISRDNSKNTLYLQINSLRTEDTAVYYCAKDTWNSLDTFDIWGQGTMVTVSSDIQLTQSPSSLSASVGDRVTITCWASQGISSYLAWYQQKPGKAPKLLIYAASTLQSGVPSRFSGSGSGTEFTLTISSLQPEDFATYYCQQLNSYPLTFGGGTKVEIK
B4: 69332 Fab (Fab, V domains shown)
VH: QVTLRESGPALVKPSQTLTLTCTFSGFSLNTYGMFVSWIRQPPGKALEWLAHIHWDDDKYYSTSLKTRLTISKDTSKNQVVLTMTNMDPVDTATYYCARGHNNLNYIIHWGQGTLVTVSS
VL: AIQMTQSPSSLSASVGDRVTITCRASQGIRNDLGWYQQKPGKAPKLLIYAASTLQSGVPSRFSGSGSGTDFTLTISSLQPEDFATYYCLQDYNYPFTFGPGTKVDIKR
notes: CHO supernatant
B5: 69326 Fab (Fab, V domains shown)
VH: EVQLVESGGGLVQPGGSLRLSCAVSGFIFSSYEMNWVRQAPGKGLEWVSYISSSGSTIFYADSVKGRFTISRDNAKNSLYLQMNSLRAEDTAVYYCVSGVVLFDVWGQGTMVTVSS
VL: EIVMTQSPATLSVSPGERATLSCRASQSVSSNFAWYQQKPGQAPRLLIYSASSRATGIPVRFSGSGSGTEFTLTISSLQSEDFAVYYCQQYNIWPRTFGQGTKVEIKR
notes: CHO supernatant
B6: 69326 scFv (VH-VK) (scFv)
chain: EVQLVESGGGLVQPGGSLRLSCAVSGFIFSSYEMNWVRQAPGKGLEWVSYISSSGSTIFYADSVKGRFTISRDNAKNSLYLQMNSLRAEDTAVYYCVSGVVLFDVWGQGTMVTVSSEIVMTQSPATLSVSPGERATLSCRASQSVSSNFAWYQQKPGQAPRLLIYSASSRATGIPVRFSGSGSGTEFTLTISSLQSEDFAVYYCQQYNIWPRTFGQGTKVEIK
B7: 69331 scFv (VK-VH) (scFv)
scFv: DIQLTQSPSSLSASVGDRVTITCWASQGISSYLAWYQQKPGKAPKLLIYAASTLQSGVPSRFSGSGSGTEFTLTISSLQPEDFATYYCQQLNSYPLTFGGGTKVEIKGGGGSGGGGSGGGGSQVQLVESGGGVVQPGRSLRLSCIASGFTFSVYGIHWVRQAPGKGLEWMAVISHDGNIKHYADSVKGRFTISRDNSKNTLYLQINSLRTEDTAVYYCAKDTWNSLDTFDIWGQGTMVTVSS
notes: CHO supernatant; Vk-3xG4S-Vh
B8: 69329 scFv (VH-VK) (scFv)
chain: EVQLVESGGGLVQPGGSLRLSCAASGFTFSNYWMTWVRQAPGKGLEWVANIKEDGSEKDYVDSVKGRFTISRDNAKNSLYLQMNSLRGEDTAVYYCARDGEQLVDYYYYYVMDVWGQGTTVTVSSDIQMTQSPSSVSASVGDRVTITCRASQGISSWLAWYQQKPGKAPKLLIYAASSLQSGVPSRFSGSGSGTDFTLTISSLQPEDFATYYCQKANSFPYTFGQGTKLEIK

Target: T1, Hmm-hTFRC (REGN2431), monomeric human transferrin receptor ectodomain with N-terminal hexahistidine-myc-myc … (human, UniProt P02786 89-760)
T1 construct: also called hmm.hTfR(C89-F763); His-myc-myc-hTFRC ecto
T1 sequence (P02786 other isoform, or with tags, fused parts or gaps): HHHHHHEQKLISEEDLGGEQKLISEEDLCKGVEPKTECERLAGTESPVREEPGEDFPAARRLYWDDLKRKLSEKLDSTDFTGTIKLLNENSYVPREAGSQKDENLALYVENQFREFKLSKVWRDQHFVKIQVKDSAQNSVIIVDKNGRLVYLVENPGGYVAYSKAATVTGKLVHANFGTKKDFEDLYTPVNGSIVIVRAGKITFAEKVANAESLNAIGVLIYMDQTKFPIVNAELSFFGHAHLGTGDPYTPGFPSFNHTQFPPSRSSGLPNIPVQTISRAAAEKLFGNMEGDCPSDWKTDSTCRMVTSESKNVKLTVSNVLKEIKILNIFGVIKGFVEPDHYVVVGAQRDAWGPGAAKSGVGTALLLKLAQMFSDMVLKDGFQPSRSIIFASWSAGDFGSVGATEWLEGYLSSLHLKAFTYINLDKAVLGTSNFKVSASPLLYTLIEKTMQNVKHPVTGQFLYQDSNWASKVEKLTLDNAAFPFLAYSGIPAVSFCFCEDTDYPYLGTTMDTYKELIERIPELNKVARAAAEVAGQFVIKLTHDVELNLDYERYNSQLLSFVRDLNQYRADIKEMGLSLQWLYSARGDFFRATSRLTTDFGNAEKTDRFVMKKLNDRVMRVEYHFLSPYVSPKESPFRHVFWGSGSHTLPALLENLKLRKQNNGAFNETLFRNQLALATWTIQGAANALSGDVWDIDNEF
Assay: blocking ELISA, supernatant; Hmm-hTFRC binding to immobilized human holo-Tf
Procedure, shortened: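 Plates were coated with anti-hTf goat pAb at 2 µg/mL overnight at 4 °C, then loaded with human holo-Tf at 1 µg/mL for 2 h at room temperature. Bound receptor was detected with TMB and absorbance read at 450 nm.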

| Binder | % Blocking |
| --- | --- |
| B1 | 9% |
| B2 | 12% |
| B3 | 7% |
| B4 | 18% |
| B5 | -2% |
| B6 | 18% |
| B7 | 13% |
| B8 | 25% |
